According to paper PMC4211736:
“And” between values parts separate entries of the source, which are not always exact repeats. Equal values may be shown once.

Tests used:
recombinant WT-C100Flag = assay: SDS-PAGE, Coomassie stain and Western blot (SDS-stable multimers); recombinant protein run on 4-12% Bis-Tris gels; monomer, dimer and trimer bands cut out, eluted in 150 mM sodium citrate pH 6.8 and rerun; Coomassie stain and blot (6E10, Ab5)
G29K/A30K(3xK)-APP695wt = assay: SDS-PAGE and Western blot (SDS-stable dimer); CHO cells lysed in RIPA buffer (0.1% SDS); 3-8% Tris-Acetate gel; blot probed with anti-APP C-terminal antibody A8717
recombinant 3xK-C100Flag = assay: SDS-PAGE, Coomassie stain and Western blot (SDS-stable multimers); recombinant protein run on 4-12% Bis-Tris gels; monomer, dimer and trimer bands cut out, eluted in 150 mM sodium citrate pH 6.8 and rerun; Coomassie stain and blot (6E10, Ab5)

Sequence of recombinant WT-C100Flag (P05067 18-701): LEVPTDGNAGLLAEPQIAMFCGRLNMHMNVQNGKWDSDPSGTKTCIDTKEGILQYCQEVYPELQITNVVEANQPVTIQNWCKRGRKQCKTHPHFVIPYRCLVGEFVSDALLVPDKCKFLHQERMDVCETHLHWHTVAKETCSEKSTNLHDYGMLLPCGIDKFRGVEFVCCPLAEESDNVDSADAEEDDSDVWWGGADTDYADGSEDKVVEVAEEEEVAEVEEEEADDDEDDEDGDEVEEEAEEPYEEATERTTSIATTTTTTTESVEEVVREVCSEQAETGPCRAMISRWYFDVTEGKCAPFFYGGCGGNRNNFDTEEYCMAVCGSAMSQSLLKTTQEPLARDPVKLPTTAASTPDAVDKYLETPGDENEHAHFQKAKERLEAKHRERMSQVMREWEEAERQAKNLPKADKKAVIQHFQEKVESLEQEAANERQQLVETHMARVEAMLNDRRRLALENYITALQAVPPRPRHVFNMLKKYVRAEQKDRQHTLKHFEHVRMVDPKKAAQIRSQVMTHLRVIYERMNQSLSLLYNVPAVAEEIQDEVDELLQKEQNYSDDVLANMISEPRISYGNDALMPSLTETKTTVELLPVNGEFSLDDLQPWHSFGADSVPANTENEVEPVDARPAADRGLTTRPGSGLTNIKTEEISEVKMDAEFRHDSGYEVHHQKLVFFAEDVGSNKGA

## recombinant WT-C100Flag (domain or fragment)
Recombinant WT-C100Flag
  stoichiometry N: 2 and 3

## G29K/A30K(3xK)-APP695wt (natural protein)
G29K/A30K(3xK)-APP695wt
  stoichiometry N: 2

## recombinant 3xK-C100Flag (domain or fragment)
Recombinant 3xK-C100Flag
  stoichiometry N: 2 and 3
